Data published in paper PMC3213119.

Biological target: TssM-ekto (periplasmic domain of TssM, 386-1129), after TEV cleavage (enteroaggregative Escherichia coli strain 17-2)
Experiment: SEC-MALS; MALS/QELS/UV/RI of the TssM-ekto/TssJ complex; 10 mM HEPES pH 7.5, 150 mM NaCl

Question: For “TssJ (enteroaggregative E. coli Sci1 T6SS), residues 2-155 of the processed lipoprotein, fusion and tag cleaved (domain or fragment)”, which stoichiometry N is on record?
Answer: 1
